Results on one substance are retold here after patent US20220112236A1.

Experiment [1] deals with Polyclonal human IgG Gammanorm (human). The experiment is described as follows: affinity chromatography column, IgG binding capacity after 24 h in 0.5 M NaOH at room temperature relative to before incubation.
Experiment [2] has the same target. Put plainly: affinity chromatography, commercial resin packed in column, polyclonal human IgG (Gammanorm) applied, DBC at 6 min residence time.

On to MabSelect SuRe, for which, in experiment [1], the Remaining binding capacity after 24h 0.5M NaOH incubation amounted to 75.2%. Moreover, in experiment [2], the Dynamic binding capacity at 6 min residence time stood at 41.8 mg/mL.
